Assay results published in paper PMC5431456.

Columns and labels:
[1] = biological target: Subtilase cytotoxin B subunit (SubB), wild type (Escherichia coli) (UniProt Q6EZC3); test: SPR; Biacore T100; SubB or SubB mutant immobilised on a series S CM5 chip (flow cell 1 blank); AGP flowed over, 0.01-100 µM in range finding; single cycle kinetics
[2] = biological target: SubB ΔS106/ΔT107/E108D (Escherichia coli) (UniProt Q6EZC3); test: SPR
[3] = biological target: SubB S106A/T107A (Escherichia coli) (UniProt Q6EZC3); test: SPR
[4] = biological target: SubB ΔS106/ΔT107 (Escherichia coli) (UniProt Q6EZC3); test: SPR

## human α1-acid glycoprotein (AGP) (from UniProt P02763 19-201) (natural protein)
[1]
  Kd: 2120 nM
[2]
  Kd: 2820 nM
[3]
  Kd: 723 nM
[4]
  Kd: 1650 nM
